Source: patent US20080274110A1 (published 2008)

Target: T1, β2 microglobulin (human, UniProt P61769 21-119)
T1 construct: The 12 kD band on its own, as probed by Western blotting; also called molecule of approximately 12 KD
Assay: Western blotting with the 2D7 antibody
Text: As a result, a molecule (approximately 12 kD) that precipitates specifically in RPMI8226 and U266 cells was observed (FIG. 3). This molecule was not detected by Western blotting using the 2D7 antibody, but since it is at least reproducibly precipitated by the 2D7 antibody, it was strongly predicted to be the 2D7 antigen itself, or a molecule that co-precipitates with the 2D7 antigen.

T1 sequence (P61769 21-119 limits assumed): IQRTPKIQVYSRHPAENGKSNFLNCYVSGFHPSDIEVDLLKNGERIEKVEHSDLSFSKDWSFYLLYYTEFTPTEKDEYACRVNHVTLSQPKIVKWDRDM

B1: 2D7 antibody (antibody, mouse IgG2b, V domains shown)
VH: QVQLQQSGPELVKPGASVKMSCKASGYTFTDYFIHWVKQRPGQGLEWIGWIFPGDDTTDYNEKFRGKTTLTADKSSSTAYILLSSLTSEDSAMYFCVRSDDFDYWGQGTTLTVSS
VL: QIVLTQSPAIMSASPGEKVTITCSASSSVSYMHWFQQKPGTFPKLWIYSTSNLASGVPTRFSGSGSGTSYSLTISRMEAEDAATYYCQQRTSYPPTFGSGTKLEIK
notes: Whole mouse monoclonal antibody purified on Protein A from ascites of the 2D7 hybridoma (University of Tokushima); Primers for mouse IgG2b constant regions were used to clone its variable regions
  binding result: no binding
